From US20060020109A1 (Harvard, published 2006)

What was measured:
[1] = biological target: HLA-DR2 (DRB1*1501) on antigen presenting cells (MGAR, L466) (human); test: cell-based or functional assay
[2] = biological target: T1, soluble recombinant HLA-DR2 molecules (MHC class II HLA-DR2 protein) (human); test: competition ELISA on soluble HLA-DR2; competitor biotinylated Cop 1 (1.5 µM)
T1 construct: Soluble, empty protein from Drosophila S2 cells, captured on plates by antibody LB3.1; also called MHC class II DR2 protein; recombinant HLA-DR2 protein

Row | Inhibition of IL-2 production (%), Hy1B [1] [%] | IC50 [2] [µM] | Binder
1 | 42 | > 1000 | EKEAYAAYKAAAAAA [synthetic peptide #92]
2 | 22 | > 1000 | AKEEYAAYAAAAAAA [synthetic peptide #62]
3 | 36 | > 1000 | EEKAYAAAAAAAAAA [synthetic peptide #105]
4 | 29 | > 1000 | EAKAYAAYKAAAAAA [synthetic peptide #86]
5 | 0 | > 1000 | AEAKYAAYAAAAAAA [synthetic peptide #60]
6 | 42 | > 1000 | AAKEYAAYKAAAAAA [synthetic peptide #84]
7 | 16 | > 1000 | AAKEYAAYAAAAAAA [synthetic peptide #58]
8 | 36 | > 1000 | AEKAAAAYAAAAAAA [synthetic peptide #49]
9 | 39 | > 1000 | EKAEYAAYAAAAAAA [synthetic peptide #72]
10 | 27 | > 1000 | AKAEAAAYAAAAAAA [synthetic peptide #48]
11 | 45 | > 1000 | AAEKYEAYAAAAAAA [synthetic peptide #69]
12 | 17 | > 1000 | AKEEYAAAAAAAAAA [synthetic peptide #38]
13 | 40 | > 1000 | EKAAYAAYKAAAAAA [synthetic peptide #87]
14 | 47 | > 1000 | AKEEYAAYKAAAAAA [synthetic peptide #82]
15 | 22 | > 1000 | AEKEYAAAAAAAAAA [synthetic peptide #40]
16 | 5 | > 1000 | AKKEYAAAAAAAAAA [synthetic peptide #37]
17 | 34 | > 1000 | AAEKVAAAAAAAAAA [synthetic peptide #114]
18 | 22 | > 1000 | AAKAYEAYAAAAAAA [synthetic peptide #65]
19 | 59 | > 1000 | AKEAYAAYKAAAAAA [synthetic peptide #78]
20 | 22 | > 1000 | EAKEYAAYAAAAAAA [synthetic peptide #74]
21 | 22 | > 1000 | EEAAYAAYKAAAAAA [synthetic peptide #90]
22 | 16 | > 1000 | AEEKYAAYAAAAAAA [synthetic peptide #56]
23 | 41 | > 1000 | EAAEYAAYKAAAAAA [synthetic peptide #89]
24 | 52 | > 1000 | AAAEYAAYKAAAAAA [synthetic peptide #76]
25 | 13 | > 1000 | KEKAAAAYAAAAAAA [synthetic peptide #47]
26 | 43 | > 1000 | AEEKYAAYKAAAAAA [synthetic peptide #83]
27 | 38 | > 1000 | AEKKYAAYAAAAAAA [synthetic peptide #54]
28 | 29 | > 1000 | AKAEYAAYAAAAAAA [synthetic peptide #59]
